Consider 1 substance from patent US20130052733A1.

The assay has as its target mAb LGIII 147.4.1. Put plainly: direct ELISA, capture by mAb LG III 147.4.1, detection with FL119. (In general: An ELISA detects its analyte on a solid surface through an enzyme-linked reagent.)

As to “HLA-A*1101/LMP2340-349-fused β2m (from UniProt P61769 21-119) (peptide-MHC)”, the concentration at which absorbance is saturated amounted to 4 nCM.
